First the molecules themselves.
B1: Adhesion G protein-coupled receptor B2 (Homo sapiens), O60241 (parent)
chain: MENTGWMGKGHRMTPACPLLLSVILSLRLATAFDPAPSACSALASGVLYGAFSLQDLFPTIASGCSWTLENPDPTKYSLYLRFNRQEQVCAHFAPRLLPLDHYLVNFTCLRPSPEEAVAQAESEVGRPEEEEAEAAAGLELCSGSGPFTFLHFDKNFVQLCLSAEPSEAPRLLAPAALAFRFVEVLLINNNNSSQFTCGVLCRWSEECGRAAGRACGFAQPGCSCPGEAGAGSTTTTSPGPPAAHTLSNALVPGGPAPPAEADLHSGSSNDLFTTEMRYGEEPEEEPKVKTQWPRSADEPGLYMAQTGDPAAEEWSPWSVCSLTCGQGLQVRTRSCVSSPYGTLCSGPLRETRPCNNSATCPVHGVWEEWGSWSLCSRSCGRGSRSRMRTCVPPQHGGKACEGPELQTKLCSMAACPVEGQWLEWGPWGPCSTSCANGTQQRSRKCSVAGPAWATCTGALTDTRECSNLECPATDSKWGPWNAWSLCSKTCDTGWQRRFRMCQATGTQGYPCEGTGEEVKPCSEKRCPAFHEMCRDEYVMLMTWKKAAAGEIIYNKCPPNASGSASRRCLLSAQGVAYWGLPSFARCISHEYRYLYLSLREHLAKGQRMLAGEGMSQVVRSLQELLARRTYYSGDLLFSVDILRNVTDTFKRATYVPSADDVQRFFQVVSFMVDAENKEKWDDAQQVSPGSVHLLRVVEDFIHLVGDALKAFQSSLIVTDNLVISIQREPVSAVSSDITFPMRGRRGMKDWVRHSEDRLFLPKEVLSLSSPGKPATSGAAGSPGRGRGPGTVPPGPGHSHQRLLPADPDESSYFVIGAVLYRTLGLILPPPRPPLAVTSRVMTVTVRPPTQPPAEPLITVELSYIINGTTDPHCASWDYSRADASSGDWDTENCQTLETQAAHTRCQCQHLSTFAVLAQPPKDLTLELAGSPSVPLVIGCAVSCMALLTLLAIYAAFWRFIKSERSIILLNFCLSILASNILILVGQSRVLSKGVCTMTAAFLHFFFLSSFCWVLTEAWQSYLAVIGRMRTRLVRKRFLCLGWGLPALVVAVSVGFTRTKGYGTSSYCWLSLEGGLLYAFVGPAAVIVLVNMLIGIIVFNKLMARDGISDKSKKQRAGSERCPWASLLLPCSACGAVPSPLLSSASARNAMASLWSSCVVLPLLALTWMSAVLAMTDRRSVLFQALFAVFNSAQGFVITAVHCFLRREVQDVVKCQMGVCRADESEDSPDSCKNGQLQILSDFEKDVDLACQTVLFKEVNTCNPSTITGTLSRLSLDEDEEPKSCLVGPEGSLSFSPLPGNILVPMAASPGLGEPPPPQEANPVYMCGEGGLRQLDLTWLRPTEPGSEGDYMVLPRRTLSLQPGGGGGGGEDAPRARPEGTPRRAAKTVAHTEGYPSFLSVDHSGLGLGPAYGSLQNPYGMTFQPPPPTPSARQVPEPGERSRTMPRTVPGSTMKMGSLERKKLRYSDLDFEKVMHTRKRHSELYHELNQKFHTFDRYRSQSTAKREKRWSVSSGGAAERSVCTDKPSPGERPSLSQHRRHQSWSTFKSMTLGSLPPKPRERLTLHRAAAWEPTEPPDGDFQTEV

In one experiment the parent is B1. The following applies: with gnaz_human GNAZ.
Turning to R1465W, the “effect of a mutation on the interaction” value is “with no effect”.

Variants of B1 are the subject of the next experiment. The following applies: with gnai1_human GNAI1, P63096.
gnai1_human GNAI1, P63096, sequence (P63096 whole entry): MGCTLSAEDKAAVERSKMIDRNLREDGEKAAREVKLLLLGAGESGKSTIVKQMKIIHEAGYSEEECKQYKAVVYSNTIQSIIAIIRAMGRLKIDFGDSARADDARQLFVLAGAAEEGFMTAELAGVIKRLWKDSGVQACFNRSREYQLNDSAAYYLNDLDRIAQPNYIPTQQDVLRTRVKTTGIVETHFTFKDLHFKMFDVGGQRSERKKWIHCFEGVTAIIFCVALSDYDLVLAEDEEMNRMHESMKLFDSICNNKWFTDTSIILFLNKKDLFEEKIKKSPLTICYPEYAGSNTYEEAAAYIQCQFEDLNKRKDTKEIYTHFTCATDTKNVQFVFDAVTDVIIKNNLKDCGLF
Take R1465W: the “effect of a mutation on the interaction” value was “causing an interaction”.

Another experiment covers variants of B1. The settings on record: with arrb2_rat Arrb2, P29067.
arrb2_rat Arrb2, P29067, sequence (P29067 whole entry): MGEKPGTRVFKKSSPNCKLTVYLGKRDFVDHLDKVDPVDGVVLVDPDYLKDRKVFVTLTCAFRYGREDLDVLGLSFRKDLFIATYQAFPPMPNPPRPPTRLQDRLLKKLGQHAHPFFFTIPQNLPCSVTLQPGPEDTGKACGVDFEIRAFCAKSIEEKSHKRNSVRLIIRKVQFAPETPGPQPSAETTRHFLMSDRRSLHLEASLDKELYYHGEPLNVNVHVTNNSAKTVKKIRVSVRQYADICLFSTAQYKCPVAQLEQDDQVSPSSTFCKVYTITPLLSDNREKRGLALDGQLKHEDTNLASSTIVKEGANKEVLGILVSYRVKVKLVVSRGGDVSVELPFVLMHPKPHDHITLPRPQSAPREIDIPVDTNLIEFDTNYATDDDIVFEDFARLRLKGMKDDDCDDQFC
Take R1465W: the “effect of a mutation on the interaction” value is “with no effect”.

The next experiment covers variants of B1. The settings on record: with sh3g2_human SH3GL2, Q99962.
sh3g2_human SH3GL2, Q99962, sequence (Q99962 whole entry): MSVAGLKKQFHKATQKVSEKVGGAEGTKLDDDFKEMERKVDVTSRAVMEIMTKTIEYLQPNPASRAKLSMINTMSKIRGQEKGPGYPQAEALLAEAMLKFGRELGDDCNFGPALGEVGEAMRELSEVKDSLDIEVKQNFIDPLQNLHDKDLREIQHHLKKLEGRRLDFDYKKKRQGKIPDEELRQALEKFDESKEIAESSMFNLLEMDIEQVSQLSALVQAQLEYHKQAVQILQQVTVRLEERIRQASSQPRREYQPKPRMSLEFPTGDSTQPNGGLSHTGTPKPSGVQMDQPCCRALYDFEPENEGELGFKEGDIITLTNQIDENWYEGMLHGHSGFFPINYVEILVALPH
For R1465W, the “effect of a mutation on the interaction” value is “disrupting interaction strength”.
